According to paper PMC9563126, “Identification of a flavonoid C-glycosyltransferase from fern species Stenoloma chusanum and the application in synthesizing flavonoid C-glycosides in Escherichia coli” (Microbial Cell Factories, 2022):

Assays:
[1] = substrate: O=C1CC(O)(c2ccc(O)cc2)Oc2cc(O)cc(O)c21; assay: HPLC glycosylation assay, Lineweaver-Burk; type: biochemical, Odontosoria chinensis; details: 1 mM UDP-glucose, 200 mM MES pH 6.5, 1 mM DTT, 30 °C, 15 min, acceptor varied
From the text: (§1) HPLC glycosylation assay, Lineweaver-Burk on ScCGT1

[2] = substrate: O=C(CCc1ccc(O)cc1)c1c(O)cc(O)cc1O; assay: HPLC glycosylation assay, Lineweaver-Burk; type: biochemical, Odontosoria chinensis; details: 1 mM UDP-glucose, 200 mM MES pH 6.5, 1 mM DTT, 30 °C, 15 min, acceptor varied
From the text: as §1

Protein	Km [1] [µM]	Vmax [1] [µmol/min/mg]	kcat [1] [s⁻¹]	kcat/Km [1] [M⁻¹ s⁻¹]	Km [2] [µM]	Vmax [2] [µmol/min/mg]	kcat [2] [s⁻¹]	kcat/Km [2] [M⁻¹ s⁻¹]
ScCGT1 (Odontosoria chinensis) (protein) MASCDTGLLSDQRHHALMFPYPVQGHIQPFMRLSKLLATNYGFTISFFNSEENHRRLLADRDEPASQEDRAEDAEGKPLDFRMLFLPDVLPSSTEVEQMSAGTHIEKSHVLLSKTFLNTDPAALETLIRSQSPPITCLILDPLVTVIAPGLGEKLGITSLIFFPASAASLATAIRSGEVDGDAKQMTRIVGAPVLDVKEVNPFLSICGRGHSDFMARLFTQPFRKKLIKANDIILINTVEELEESTLKHLQEENKVCAIGPVLPPWGAFAVPTLWSQDYSCLDWLDKQPAASVLFVSFGSLATLSSTQLSDLALGLEASNQRILWVTRPDQIYGKAPDLPSDFLERIKDRILVFSWVPQLHVLCHTSVGGFLSHCGWNSTIESIAAGVPILAWPFFGDQMLNAKCVVEKWRIGLALTGAGGAMSKAVVETRVKDLMEGDLSKELRNRAQNLKHIVVKALSHGGSSSSNLQKLFGHL	17.5 ± 2.0	0.0115	0.0133 ± 0.000167	795	23.8 ± 2.8	0.011	0.0133 ± 0.000333	560
ScCGT1 (Odontosoria chinensis; P164T) (protein) MASCDTGLLSDQRHHALMFPYPVQGHIQPFMRLSKLLATNYGFTISFFNSEENHRRLLADRDEPASQEDRAEDAEGKPLDFRMLFLPDVLPSSTEVEQMSAGTHIEKSHVLLSKTFLNTDPAALETLIRSQSPPITCLILDPLVTVIAPGLGEKLGITSLIFFTASAASLATAIRSGEVDGDAKQMTRIVGAPVLDVKEVNPFLSICGRGHSDFMARLFTQPFRKKLIKANDIILINTVEELEESTLKHLQEENKVCAIGPVLPPWGAFAVPTLWSQDYSCLDWLDKQPAASVLFVSFGSLATLSSTQLSDLALGLEASNQRILWVTRPDQIYGKAPDLPSDFLERIKDRILVFSWVPQLHVLCHTSVGGFLSHCGWNSTIESIAAGVPILAWPFFGDQMLNAKCVVEKWRIGLALTGAGGAMSKAVVETRVKDLMEGDLSKELRNRAQNLKHIVVKALSHGGSSSSNLQKLFGHL	31.7 ± 2.9	0.0399	0.0483 ± 0.001	1520	29.8 ± 2.5	0.0334	0.04 ± 0.000833	1360
